According to US20190002515A1 (published 2019):

Target: T1, GAGE-1 peptide on HLA-DRA*01:01 / HLA-DRB5*01:01 (human)
T1 peptide: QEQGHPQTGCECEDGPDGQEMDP
Assay: cytokine release

B1: TCR specific for GAGE-1 of SEQ ID NOs 7 and 8 (TCR, V domains shown)
Valpha: EDKVVQSPLSLVVHEGDTVTLNCSYEVTNFRSLLWYKQEKKAPTFLFMLTSSGIEKKSGRLSSILDKKELSSILNITATQTGDSAIYLCAERTQGGSEKLVFGKGTKLTVNP
Vbeta: DAGITQSPRHKVTETGTPVTLRCHQTENHRYMYWYRQDPGHGLRLIHYSYGVKDTDKGEVSDGYSVSRSKTEDFLLTLESATSSQTSVYFCATQRNTEAFFGQGTRLTVV
B1: recognises.
